The nature of the data set: label from the status in PepcDB records.
Turning to “MPKTKLTSPPFKILKCTECDACINVPSILQSNEQAECPRCHHLLASGTRWSLHRCAMIALSILILMPFSLNYPLLSLHLLGIKIDASIWDGIWKMAVGGYEYTAFMIFICAVVMPITFALLVIMLWLAKIFQIKPRSVLLFLGYIKAWVMFDVYLVALGVTIFKVREYATLEINIYLIPFIFTALLTTLLFIKLNLSALWQEFYPECTSVYTKQAVELCPACHYTFTQKSIHYDHQQKICCPRCQSPLNTSDKLKLQATWATLIAGIIMLFPANLLPISGIYLTGALSEDTLISGVISFVKSGSYFVAFVVFFASIFVPISKIFIMLYLLACVHFKWQHSIKWQMRLLHLVHFVGRWSMLDLFVLALMMSLVTRGEIINFTVGPGAFYFGAAVFCTMLSTSQFDSKLIWKIYDREK”, the protein production entry is reported as “failed”.

Take “MISNNTRRVYRISFSFFEQYCLEHNLQSLPADPRSIISFIGHQKELLQASTGMQLSKQTLTTRIAAIRFYHIQAGFPTPTEHPQVIRVMRGLSRNHHRLVQDYDQQPLEHHHHHH”: the protein production result is reported as “failed”.

Take “MAKAVRIGAEGYKLKLDGAVQEIDGRSVVLVDVDSITPLMFGGSMKEKAKLLDAKFLRKYYEENKDFFFLSTREEKKMFVTLQLAREYAELVDDQFLRGFFEKALESAQKAF”: the protein production entry is on record as “not failed”.

With “KTITGFYPLNQGHDALLARTSLIESAQKSLDLQYYIYRGDETSQLITWRLYEAAKRGVRIRLLLDDMQKRNDNVMAALNAHPNIEIRLFNPHQYRSARIFALTSDFERLNRRMHNKSLIADSVSAIVGGRNIGNEYFSFESEVEFGDFDLLLYGEAVQQTADQFDLYWNSVHAVPMEWISPQSQSVSDAAIQKQVTKLNLQEKFSSGRYDFTALDMYQ”, the protein production result was “failed”.

For “MSDSKFLRGTLIVTLGTFLVKFLGMIYVFPFHALVGTEGGTLYTYGYIPYTIFLSIATAGVPLAVSKFVSKYNALGDYKTSRRMFRSGMVMMIVTGVLSFLVLYMTAPLFAEAMLGKQSIHNNVGEVTTIIRLVSFALIVVPAASLIRGYFQGHQSMGPTTVSQIIEQIIRIVFLLAGSFIVIKVLGGTVATAVGVATFAAFVSAVGALGVLIWYWLKRKKYLDQYLIEQTVPESTVSTVQLFKELFAYAIPYVVIGLTIPLYQQIDTLTFNSIMQAIGQGDIAERALGIFTMWTHKLIMIPVSLATAFSLTLVPAITKSFTEKQYRYLKLQITQTFQANMFLTLPAVVGISSLAYPIYTAFYDSDPLGGQVLMWYAPVALLFALFTVTAAILQGINQQKHAIIALIMGVILKFVCNVIFIRYFGTVGAILATAVGFLASVWYTNQQIKKYAHYSFGVVYKRTFQIAVLTLIMVVAVKLSQWILSFMISPDGRIGALITVAICAGIGGLVYGLLAIRTGVLERVFGGEALDKIQRKLGSRFKIKLKSRGA”, the protein production entry was “not failed”.

For “MSESPTAGRASLAPLREFITGLSALLDEQPGEARILREGGALLARLVARDDWLPDAFAQPHPEYYQQMLLHCDSAERFSIVSFVWGPGQRTPIHDHTVWGLIGMLRGAEYSQPFVLDGSGRPVLHGEPTRLEPGHVEAVSPTVGDIHRVHNAYDDRVSISIHVYGANIGGVRRSVYTEAGERKPFISGYSNPYLPNPWDRSKDSAAS”, the protein production result was “not failed”.

Consider “MSTFQQPDPRDRPARLTVGVVGAGRVGPALAASLQLAGHRPVAVSGVSDTSVRRAAAMLPDVPLVTPAQVLERADLVLLTVPDDALPGLVEGLAETGAVRPGQLLVHTSGRYGTKVLDPARSAGALPLALHPAMTFTGTAVDVQRLAGCSFGVTAPDELRLAAEALVIEMGGEPEWIAEENRPLYHAALALGANHLVTLVAESMELLRTAGVEAPDHMLGPLLGAALDNALRSGDGALTGPVARGDAGTVAAHVAELRKHAPGTVPGYLAMARATADRALAHGLLKPELAEDLLGVLANGTEGDAG”, for which the protein production entry is recorded as “failed”.

Regarding “ITVADQISHWSAGRIKNRTRIPECIHSSAATTLAGPHTMEGESVKLSSQTLIQAGDDEKNQRTITVNPAHMGKAFKVMNELRSKQLLCDVMIVAEDVEIEAHRVVLAACSPYFCAMFTGDMSESKAKKIEIKDVDGQTLSKLIDYIYTAEIEVTEENVQVLLPAASLLQLMDVRQNCCDFLQSQLHPTNCLGIRAFADVHTCTDLLQQANAYAEQHFPEVMLGEEFLSLSLDQVCSLISSDKLTVSSEEKVFEAVISWINYEKETRLEHMAKLMEHVRLPLLPRDYLVQTVEEEALIKNNNTCKDFLIEAMKYHLLPLDQRLLIKNPRTKPRTPVSLPKVMIVVGGQAPKAIRSVECYDFEEDRWDQIAELPSRRCRAGVVFMAGHVYAVGGFNGSLRVRTVDVYDGVKDQWTSIASMQERRSTLGAAVLNDLLYAVGGFDGSTGLASVEAYSYKTNEWFFVAPMNTRRSSVGVGVVEGKLYAVGGYDGASRQCLSTVEQYNPATNEWIYVADMSTRRSGAGVGVLSGQLYATGGHDGPLVRKSVEVYDPGTNTWKQVADMNMCRRNAGVCAVNGLLYVVGGDDGSCNLASVEYYNPVTDKWTLLPTNMSTGRSYAGVAVIHKSL”, the protein production result is listed as “not failed”.

On to “QETGISMIGERTNSNGSKAFREAMLSGDWEKCVDIAKQQTRDGAHMLDLCVDYVGRDGTADMATLAALLATSSTLPIMIDSTEPEVIRTGLEHLGGRSIVNSVNFEDGDGPESRYQRIMKLVKQHGAAVVALTIDEEGQARTAEHKVRIAKRLIDDITGSYGLDIKDIVVDCLTFPISTGQEETRRDGIETIEAIRELKKLYPEIHTTLGLSNISFGLNPAARQVLNSVFLNECIEAGLDSAIAHSSKILPMNRIDDRQREVALDMVYDRRTEDYDPLQEFMQLFEGVSAAD”, for which the protein production entry is “not failed”.

As to “MGWCVMAVLVDSETRVLVQGITGREGSFHAKAMLEYGTKVVAGVTPGKGGSEVHGVPVYDSVKEALAEHPEINTSIVFVPAPFAPDAVYEAVDAGIRLVVVITEGIPVHDTMRFVNYARQKGATIIGPNCPGAITPGQAKVGIMPGHIFKEGGVAVVSRSGTLTYEISYMLTRQGIGQSTVIGIGGDPIVGLSFTEALKLFQEDPQTEALVLIGEIGGDMEERAAEMIKKGEFTKPVIAYIAGRTAPPEKRMGHAGAIIMMGTGTYEGKVKALREAGVEVAETPFEVPELVRKALRR”, the protein production result was “not failed”.

As for “MTSCTIIDATDRSIRQTLGETSTLARLIWVDAGLASPPLCSGLARCGRCRVRITEAAPAPHEDDREFFSAEDISAGWRLACRHAPAHGMVVHVPLEHHHHHH”, the protein production entry was “not failed”.

On to “MKMDTGALTFQQKIYWLVKQIPLGRVATYGQIAALCGWPRHGRYVGYALYRVAPNSDIPWHRVVNAQGKISYAPQRRGTDELQRWRLAAEGIIFTAGDRINLRRYQWQPPATVYQQLIWPEGAATDSAKALEHHHHHH”, for which the protein production result is “not failed”.

With “MMAACWFGCAPAAELHAYTEDVPPLNYLDNGNVKGYSTEVLQLVAREAGFNLTVEVLPWLRAYAKARDTAGGLLYTVVRTPEREAQFQWVGPIGSRRIYMYRLGPRGNIRVDAASDLTRYRNGVLTGSATASQLQALGLQSGLNLDLGQSDAVNLKKLLLKRVDLIAMLDWAMAWQLRLQRLPENTVAPAWLLDGKLQYWFALNPHTPPEQVAKLQAALDRIRADGRLQAIRRRYRDD”, the protein production result is reported as “failed”.

With “MLAGATLAIGVIAPQVLPATAHADEQTGESTVNLRILETSDIHVNLMNYDYYQTKTDNKVGLVQTATLVNKAREEAKNSVLFDDGDALQGTPLGDYVANKINDPKKPVDPSYTHPLYRLMNLMKYDVISLGNHEFNYGLDYLNKVISKTEFPVINSNVYKDDKDNNEENDQNYFKPYHVFEKEVEDESGQKQKVKIGVMGFVPPQVMNWDKANLEGKVKAKDIVETAKKMVPKMKAEGADVIVALAHSGVDKSGYNVGMENASYYLTEVPGVDAVLMGHSHTEVKDVFNGVPVVMPGVFGSNLGIIDMQLKKVNGKWEVQKEQSKPQLRPIADSKGNPLVQSDQHLVNEIKDDHQATIDYVNT”, the protein production result is “failed”.

For the sequence “MLRGVAALVVYKGKPALAEEKGGRLELTLEGGARQRVRPKDVLFLHPGPASLDLKVPEGEEEAAWELLEGQTVSLRELAELVYGAYTPEAALGAYLLAQKGERFVLEGEGVRARTREELLALQEAERKRAERERAFQEALKRLKEGSPAPEDRPLLAEVEALARGERKESPVLRALNLPETPEAAHAFLLRLGLWQRENPHPRRLGLPLQPPDLPVPPLPEEDRVDLTHLPAFAIDDEGSQDPDDAVFAEKVEGGFRLFVHVADVAALVPPKSPLDEEALRRGANLYLPEGTVPMLPPAVTEALGLGLREVSPALTFELWVSEEGELLEERVYPSWVRVTRLTYREALGVEALRPLEALAEAFRAKRLAAGALEIALPEVKVRVEGEEVRITPLPPYPSRVWVREAMLLAGYAAAHLAVREGLPFPFATQEAPARRVEGEGLAAMWEQRKALKRAQLKAVPAPHKGLGLPLYAQVTSPLRRYLDLVAHQQLRAWLKGERPLSQAEVLERVGAAEAVADLVREAERKSKLHWTLLHLEAKGYEGPGVLVERRGGQGVFLLPELGLTAQVALPKALPLNAEARLRFLEADLPALEARFALV”, the protein production result is on record as “failed”.

For “MTPPPAPKTPSTLLRRHLGRAVGAAYLAAATAPGPGMWLRHPHRIAVVGLPDLSLNTAPFLLSLVLFTAGLQVPPRDLGRLVGRPAALLTGLALHLLAPLLIVPGVAFALRQSPDSDGGSGLVAAMILVVAMPVAAGATVWTGAGEGDQSTTVGLVLASTLASPLTVPFTVTALCPLLSADYADTLAGAARIAGSGFALTGVVLPCAAGLVARLALPRRALDALLHAAVPTAALGSLLLTYVNASGVLGPFLTRPRPVLLAAALAVAATVCGLSFALGRITARVLRLDAHAGASVTLACGMNNSSASAVLITTALPDRPQVLLPVLAYGLLQKVAAGRVVRGGHHSGRGA”, the protein production entry was “failed”.

Consider “MSLVENLSLEPQPKRRKIDPEVKESPSRNCSHWFVRNKVCASCNTIVDNYQGRSFDYLYTGIQMSNEALGFTKRLISQTSWLEDKKLHLVLDLDHTLVHTIKVSQLSESEKYITEEVESRKDLRRFNTGFPEESLIKLRSFVHQFLKECNEMFSLYVYTKGGYDYAQLVLEMIDPDKIYFGNRVITRRESPGFKTLDLVLADERGIVVVDDKSSVWPHDKKNLLQIARYKYFGDQSCLLSECKKKIDESDEKGPLNTALRFLMDVHEEFFCDWSRKDLDSVDVRPLLKEISLRWKRKADGVV”, for which the protein production result is “failed”.

Consider “MFGKLLKKEIKELLNLGAIVSVIVVAVLYGSLGNVFKSTVEKSTVGQKVAIVREDTGTIAELAEKALGNMVDIVYAGSDLKEAEEAVKKEKAPAIIVIPKGFSQSLESGEKARLEIVWYLRGTGLSEAVSTGTISSLIESLKVQLASFLLNDPKKAQLLFDPLEIVQHTYLRGSLFKNHSPEAIMNVFYSQNIMIPILIMMLIIMSGSSLISSLAMEKENKTLETLLTMPVKREHIALAKIVGSAIVGLILAGIYMAGFYSYLNSLTQNVQGMGLNFKAVDFLLMGSSLFLSILAGLSLCMLLGMMAKDYRSAQLLTFPISILALVPMIANMIMDFSNLPGVLKVIVFLIPFSHPIMSPKLAFYGDYGLIVSGILYLLIFSIVTTVFVFRIFNSDYVVLGWQREKRLKFFSR”, for which the protein production entry is reported as “failed”.

As to “SDILLVHGSGYGGWCWDATIRALAAHGARARALDLPGRIFTPGLSLADHAAAILQEIRAPVTLVGHSAGGFSIAAAAEAAAPGLIERLIFLCAYAPRDGASVASMRRAQARQPLRPAIRLAPDRLSYSFDPDLAGEALFHDCPPEVRAAALARMGAEPVGPQEERIRLSARYHALPKHYIRCLEDRAIPPETQEAMTADWPAGSVSTLPAGHSPFLSCPEALAKRLISVAAN”, the protein production entry was “failed”.

Source of the values: a protein production outcome set (Wang et al. 2014).
